The values below come from patent US20230056252A1 (Gilead, published 2023).

First the molecules themselves.
B1: hPGT121.66 AAS + W/huSP34.3.4 scFv AAS + SAV + RF (bispecific antibody, human IgG1, lambda, L234A L235A)
chain: EVQLVESGGGLVQPGGSLRLSCAASGFTFNTYAMNWVRQAPGKGLEWVGRIRSKYNNYATYYADSVKGRFTISRDDSKNSLYLQMNSLRTEDTAVYYCVRHGNFGHSYVSWFAYWGQGTLVTVSSGGGGSGGGGSGGGGSGGGGSQAVVTQEPSLTVSPGGTVTLTCGSSTGAVTTSHYANWVQQKPGQAPRGLIGGTSKRAPWTPARFSGSLLGGKAALTLSGAQPEDEAEYYCALWYSALWVFGGGTKLTVLEPKSSDKTHTCPPCPAPEAAGGPSVFLFPPKPKDTLMISRTPEVTCVVVDVSHEDPEVKFNWYVDGVEVHNAKTKPREEQYNSTYRVVSVLTVLHQDWLNGKEYKCKVSNKALPASIEKTISKAKGQPREPQVYTLPPSREEMTKNQVSLSCAVKGFYPSDIAVEWESNGQPENNYKTTPPVLDSDGSFFLVSKLTVDKSRWQQGNVFSCSVMHEALHNRFTQKSLSLSPGK
heavy: QMQLQESGPGLVKPSETLSLTCSVSGASISDSYWSWIRRSPGKGLEWIGYVHKSGDTNYNPSLKSRVHLSLDTSKNQVSLSLTGVTAADSGKYYCARTLHGRRIYGIVAFNEWFTYFYMDVWGTGTQVTVSSASTKGPSVFPLAPSSKSTSGGTAALGCLVKDYFPEPVTVSWNSGALTSGVHTFPAVLQSSGLYSLSSVVTVPSSSLGTQTYICNVNHKPSNTKVDKKVEPKSCDKTHTCPPCPAPEAAGGPSVFLFPPKPKDTLMISRTPEVTCVVVDVSHEDPEVKFNWYVDGVEVHNAKTKPREEQYNSTYRVVSVLTVLHQDWLNGKEYKCKVSNKALPASIEKTISKAKGQPREPQVYTLPPSREEMTKNQVSLWCLVKGFYPSDIAVEWESNGQPENNYKTTPPVLDSDGSFFLYSKLTVDKSRWQQGNVFSCSVMHEALHNHYTQKSLSLSPGK
light: not shown
notes: also called 258
B2: hPGT121.66 AAS + W/huSP34.34.10 scFv AAS + SAV + R (bispecific antibody, human IgG1, lambda, L234A L235A)
chain: EVQLVESGGGLVQPGGSLRLSCAASGFTFNTYAMNWVRQAPGKGLEWVGRIRSKYNNYATYYAASVKGRFTISRDDSKNSLYLQMNSLKTEDTAMYYCVRHGNFGHSYVSWFAYWGQGTLVTVSSGGGGSGGGGSGGGGSGGGGSQAVVTQPPSLTVSPGGTVTLTCGSSTGAVTTGHYANWVQQKPGQAPRGLIGGTNKRAPGVPARFSGSLSGGKAALTISGAQPEDEAEYYCALWYSNRWVFGGGTKLTVLEPKSSDKTHTCPPCPAPEAAGGPSVFLFPPKPKDTLMISRTPEVTCVVVDVSHEDPEVKFNWYVDGVEVHNAKTKPREEQYNSTYRVVSVLTVLHQDWLNGKEYKCKVSNKALPASIEKTISKAKGQPREPQVYTLPPSREEMTKNQVSLSCAVKGFYPSDIAVEWESNGQPENNYKTTPPVLDSDGSFFLVSKLTVDKSRWQQGNVFSCSVMHEALHNRYTQKSLSLSPGK
heavy: B1 heavy
light: not shown
B3: hPGT121.66 AAS + W/huSP34.34.11 scFv AAS + SAV + R (bispecific antibody, human IgG1, lambda, L234A L235A)
chain: B2 chain with P152E, S214L, I222L, R242L
heavy: B1 heavy
light: not shown
B4: hPGT121.66 AAS + W/huSP34.13.8 scFv AAS + SAV + R (bispecific antibody, human IgG1, lambda, L234A L235A)
chain: B2 chain with N30S, S80T, K89R, M95V, P152E, S214L
heavy: B1 heavy
light: not shown
notes: also called 261
B5: hPGT121.66 AAS + W/huSP34.3.13scFv AAS + SAV + R (bispecific antibody, human IgG1, lambda, L234A L235A)
chain: B2 chain with A64D, K89R, M95V, P152E, N199S, K200N, S214L
heavy: B1 heavy
light: not shown
B6: hPGT121.66 AAS + W/huSP34.34.12scFv AAS + SAV + R (bispecific antibody, human IgG1, lambda, L234A L235A)
chain: B2 chain with G204W, V205T
heavy: B1 heavy
light: not shown
B7: hPGT121.66 AAS + W/huSP34.34.3 scFv AAS + SAV + R (bispecific antibody, human IgG1, lambda, L234A L235A)
chain: not shown
heavy: B1 heavy
light: not shown
B8: huSP34.14.8 scFv AAS + SAV + R (Fc fusion)
chain: B2 chain with R19S, N30S, S80T, K89R, M95V, P152E, S214L
notes: also called R19S
B9: huSP34.27.8 scFv AAS + SAV + R (Fc fusion)
chain: B2 chain with R19S, N30S, T60E, S80T, K89R, M95V, P152E, S214L
notes: also called R19S, T57E; R19S + T57E
B10: huSP34.25.8 scFv AAS + SAV + R (Fc fusion)
chain: B2 chain with N30S, T60A, G68S, S80T, K89R, M95V, P152E, S214L
notes: also called T57A, G65S; T57A + G65S
B11: huSP34.33.8 scFv AAS + SAV + R (Fc fusion)
chain: B2 chain with N30S, G68S, S80T, Q84E, K89R, M95V, P152E, S214L
notes: also called G65S, Q81E; G65S + Q81E
B12: huSP34.26.8 scFv AAS + SAV + R (Fc fusion)
chain: B2 chain with R19S, N30S, T60A, S80T, K89R, M95V, P152E, S214L
notes: also called R19S, T57A; R19S + T57A
B13: huSP34.28.8 scFv AAS + SAV + R (Fc fusion)
chain: B2 chain with R19S, N30S, G68S, S80T, K89R, M95V, P152E, S214L
notes: also called R19S, G65S; R19S + G65S
B14: huSP34.19.8 scFv AAS + SAV + R (Fc fusion)
chain: B2 chain with N30S, S80T, Q84E, K89R, M95V, P152E, S214L
notes: also called Q81E

Numbering of substitutions follows the chain as printed. Names may count otherwise.

T1 sequence (P07766 23-207 limits assumed, chain 1 of 2): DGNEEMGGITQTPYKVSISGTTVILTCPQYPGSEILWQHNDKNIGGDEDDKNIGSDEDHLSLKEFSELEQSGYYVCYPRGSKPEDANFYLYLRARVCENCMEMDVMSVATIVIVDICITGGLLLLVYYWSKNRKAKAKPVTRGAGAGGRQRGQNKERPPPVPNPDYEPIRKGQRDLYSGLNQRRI
T1 sequence (P04234 22-171 limits assumed, chain 2 of 2): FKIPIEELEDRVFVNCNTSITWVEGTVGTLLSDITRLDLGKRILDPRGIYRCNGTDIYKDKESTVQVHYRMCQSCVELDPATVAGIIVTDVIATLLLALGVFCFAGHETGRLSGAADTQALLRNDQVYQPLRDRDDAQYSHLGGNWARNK

The first assay concerns the target T1, CD3 expressed on cell-surface of primary human T cells (human, UniProt P07766 23-207; P04234 22-171).
T1 construct: also called cell-surface CD3; human CD3
As to the kind of experiment: flow cytometry on human PBMCs, CD4+ cells, donor 3761.
Procedure: (§1) Briefly, peripheral blood mononuclear cells (PBMCs) were incubated with different concentrations of HIV×CD3 bispecific molecules for 1 hour at RT. […] Cells were then washed, fixed/permeabilized, and analyzed using BD LSRFortessa according to the manufacturer's protocol. The percentage of α-huIgG-APC-positive CD4+ and CD8+ T cells and the mean fluorescence intensity of the α-huIgG-APC of CD4+ and CD8+ cells were collected, and data analyzed using GraphPad Prism.
(§2) Binding experiments were performed using PBMCs from two healthy human donors.
In the case of B1, the EC50 worked out at 5.1 µg/mL.

The target in another assay is CD3 on rhesus monkey T cells in PBMCs (rhesus monkey). In words: flow cytometry on PBMCs, % anti-huIgG+ CD8+ cells, donor rh 3563.
Sequence of CD3 on rhesus monkey T cells in PBMCs (rhesus monkey) (P16003 26-458): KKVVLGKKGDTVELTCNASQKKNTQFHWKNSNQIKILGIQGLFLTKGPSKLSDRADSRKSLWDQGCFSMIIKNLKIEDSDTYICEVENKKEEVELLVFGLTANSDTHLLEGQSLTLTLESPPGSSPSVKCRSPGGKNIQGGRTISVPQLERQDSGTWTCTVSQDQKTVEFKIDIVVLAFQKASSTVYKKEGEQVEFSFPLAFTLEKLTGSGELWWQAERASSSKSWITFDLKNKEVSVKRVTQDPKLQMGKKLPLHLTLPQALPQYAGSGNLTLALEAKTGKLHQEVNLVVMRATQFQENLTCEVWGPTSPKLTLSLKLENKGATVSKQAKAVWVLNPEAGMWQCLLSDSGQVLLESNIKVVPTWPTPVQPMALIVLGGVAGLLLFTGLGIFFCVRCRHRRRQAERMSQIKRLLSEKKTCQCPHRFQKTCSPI
The molecule B2 displayed an EC50 of 0.16 µg/mL.
The molecule B3 registered an EC50 of 0.22 µg/mL.
Molecule B4 returned a concentration for a half-maximal effect (EC50) of 0.2 µg/mL.
Turning to B5, the EC50 turned out to be 0.21 µg/mL.
Molecule B6 showed an EC50 of 1.24 µg/mL.
In turn, B7 yielded a half-maximal effective concentration (EC50) of 3.52 µg/mL.

The target is the same in another assay. In words: flow cytometry on PBMCs, % anti-huIgG+ CD8+ cells, donor rh 3483.
B2 showed a 50% effective concentration (EC50) of 0.1 µg/mL.
B3 came in with an EC50 of 0.11 µg/mL.
Still for that read-out and setting: the same measure for B4: 0.13 µg/mL; for B5: 0.11 µg/mL; for B6: 0.93 µg/mL.
With B7, it took 2.35 µg/mL to reach a half-maximal effect (EC50).

A further assay has as its target T1, CD3 expressed on cell-surface of …. In words: flow cytometry on PBMCs, % anti-huIgG+ CD4+ cells, donor hu 151.
In turn, B2 yielded an EC50 of 0.06 µg/mL.
B3: the half-maximal effective concentration (EC50) turned out to be 0.08 µg/mL.
Consider B4, for which the EC50 came out at 0.06 µg/mL.
Molecule B5 showed a half-maximal effective concentration (EC50) of 0.07 µg/mL.
Still for that read-out and setting: the same measure for B6: 0.51 µg/mL.
On to B7, for which the EC50 worked out at 1.41 µg/mL.

Another assay shares this target. In words: flow cytometry on PBMCs, % anti-huIgG+ CD8+ cells, donor hu 151.
Procedure: (§3) Briefly, PBMCs from healthy human donors and healthy rhesus or cynomolgus monkey donors were incubated with different concentrations of HIV×CD3 bispecific molecules for 1 hour at RT. […] Cells were then washed, fixed/permeabilized, and analyzed on BD LSRFortessa. The percentage of α-huIgG-APC-positive CD4+ and CD8+ T cells and the mFI of the α-huIgG-APC of CD4+ and CD8+ cells were collected, and data analyzed using GraphPad Prism.
With B2, the midpoint of the response, the EC50, lay at 0.07 µg/mL.
The same measure, in the same setting: the same measure for B3: 0.1 µg/mL; for B4: 0.08 µg/mL.
Molecule B5 registered an EC50 of 0.09 µg/mL.
B6 yielded a concentration giving a half-maximal response (EC50) of 0.85 µg/mL.
On to B7, for which the EC50 amounted to 1.62 µg/mL.

The next assay shares this target. In words: flow cytometry on PBMCs, % anti-huIgG+ CD8+ cells, donor hu 340.
Procedure: as §3
The molecule B2 had a concentration giving a half-maximal response (EC50) of 0.08 µg/mL.
In turn, B3 displayed an EC50 of 0.13 µg/mL.
For B4, the half-maximal effective concentration (EC50) amounted to 0.1 µg/mL.
In turn, B5 registered a concentration for a half-maximal effect (EC50) of 0.14 µg/mL.
The molecule B6 had an EC50 of 0.88 µg/mL.
B7 yielded a 50% effective concentration (EC50) of 1.21 µg/mL.

Another assay shares this target. In words: flow cytometry on human PBMCs, CD4+ cells, donor 4574.
Procedure: as §1, §2
In turn, B1 showed an EC50 of 5.7 µg/mL.

Another assay has the same target. In words: flow cytometry on human PBMCs, CD8+ cells, donor 3761.
Procedure: as §1, §2
For B1, the EC50 came out at 1.3 µg/mL.

Another assay addresses CD3 on rhesus monkey T cells in PBMCs (rhesus monkey). As to the kind of experiment: flow cytometry on PBMCs, % anti-huIgG+ CD4+ cells, donor rh 3483.
B2 had a 50% effective concentration (EC50) of 0.03 µg/mL.
The molecule B3 displayed a concentration for a half-maximal effect (EC50) of 0.06 µg/mL.
B4 displayed a half-maximal effective concentration (EC50) of 0.07 µg/mL.
B5 had an EC50 of 0.06 µg/mL.
B6 had an EC50 of 0.46 µg/mL.
The molecule B7 came in with a concentration giving a half-maximal response (EC50) of 0.93 µg/mL.

The target in the next assay is T2, MabSelect SuRe (engineered Protein A).
T2 construct: also called MabSelect SuRe column
In words: 500 ml Expi293 expression, MabSelect SuRe capture and cation exchange; purified homodimer yield relative to parent.
Procedure: 500 ml of Expi293 cells were transfected with 0.5 mg DNA encoding selected huSP34 scFv-Fc Protein A knockout variants according to manufacturer's protocol. Four days post transfection, the cell-free clarified supernatant was collected and loaded to a MabSelect™ SuRe™ (Cytiva Life Sciences) column. Afterwards the column was washed with a low salt buffer of 25 mM Tris HCl pH 7.5, 25 mM NaCl for 10 column volumes (CV), then high salt wash of 25 mM Tris HCl pH 7.5, 500 mM NaCl for 5CV to remove non-specific binding, and finally washed with a low salt wash of 25 mM Tris HCl pH 7.5, 25 mM NaCl for 10CV. To elute the antibody, an isocratic elution step of 100 mM sodium acetate pH 3.7 was performed. The eluted pool was neutralized to pH 6.0 with 1 M Tris HCl pH 9.0, and subjected to a cation ion purification, HiTrap SP HP (Cytiva Life Sciences) to further remove impurities. The cation captured protein was washed with 10 mM sodium phosphate pH 7.0 for 10CV, then eluted in 0-30% gradient of 10 mM sodium phosphate pH 7.0, 1M NaCl for 50CV to separate the desired two targeting arm antibody (heterodimer) from the one targeted arm antibody (homodimer). Followed with gradient elution from 30-100% of 10 mM sodium phosphate pH 7.0, 1 M NaCl for 10CV to remove aggregation or homodimer in higher isoelectric point (pI). All proteins were formulated into 20 mM histidine pH 5.8 by dialysis, added additive of sucrose/tween-80, sterile filtered, and stored at 4° C. Concentration of the formulated protein was measured by A280. Purity was assessed as percent monodispersed by analytical size-exclusion chromatography. Identity of the bispecific antibody was determined by Mass Spec (MS).
B8: the “scFv-Fc Homodimer Yield Relative to WT (e.g. Protein A binding)” value (from here on “scFv-Fc Homodimer Yield Relative to WT”) came to 21%.
For B9, the “scFv-Fc Homodimer Yield Relative to WT” value was 8%.
With B10, the “scFv-Fc Homodimer Yield Relative to WT” value worked out at 1%.
Same read-out and setting: the same measure for B11: 0.7%.
As to B12, the “scFv-Fc Homodimer Yield Relative to WT” value was 8%.
B13: the “scFv-Fc Homodimer Yield Relative to WT” value was 1.5%.
In the case of B14, the “scFv-Fc Homodimer Yield Relative to WT” value came out at 86%.

In a further assay the target is CD3 on rhesus monkey T cells in PBMCs (rhesus monkey). In words: flow cytometry on PBMCs, % anti-huIgG+ CD4+ cells, donor rh 3563.
The molecule B2 showed a concentration for a half-maximal effect (EC50) of 0.05 µg/mL.
Same read-out and setting: in the case of B3 it was 0.07 µg/mL; in that of B4, 0.07 µg/mL; in that of B5, 0.08 µg/mL.
Same read-out and setting: the same measure for B6: 0.68 µg/mL; for B7: 1.48 µg/mL.

The next assay concerns the target T1, CD3 expressed on cell-surface of …. As to the kind of experiment: flow cytometry on PBMCs, % anti-huIgG+ CD4+ cells, donor hu 340.
Procedure: as §3
For B2, the 50% effective concentration (EC50) amounted to 0.06 µg/mL.
The molecule B3 gave a concentration giving a half-maximal response (EC50) of 0.09 µg/mL.
In turn, B4 yielded a 50% effective concentration (EC50) of 0.07 µg/mL.
As for B5, a half-maximal response (EC50) required 0.1 µg/mL.
Consider B6, for which the EC50 was 0.57 µg/mL.
As to B7, the response was half-maximal at 1.64 µg/mL (EC50).

The next assay shares this target. In words: flow cytometry on human PBMCs, CD8+ cells, donor 4574.
Procedure: as §1, §2
For the molecule B1, a half-maximal response (EC50) required 4.8 µg/mL.
